Substitutions are numbered along the chain they refer to. Blank lines part the entries; values can stand above or below the binder they belong to.
Key:
human mesothelin (MSLN) [1] = biological target: T1, human mesothelin (MSLN) (human, UniProt Q13421 296-580, limits assumed); experiment: BLI (Octet), multiple concentrations, bsAb in 1+1 Fab-scFv-Fc format
T1 construct: Antigen of the Octet KD values

human mesothelin (MSLN) [2] = biological target: T1, human mesothelin (MSLN); experiment: label in the legend box: nominal affinity of the MSLN binding domain (paragraph 422 calls such label values KD); method not stated on the sheet
human CD28 [3] = biological target: T2, human CD28 (human, UniProt P10747 19-152, limits assumed); experiment: label in the legend box: nominal affinity of the CD28 binding domain (paragraph 422 calls such label values KD); method not stated on the sheet
T2 construct: also called Cluster of Differentiation 28; Tp44

human CD28 [4] = biological target: T2, human CD28; experiment: method not stated; Monovalent CD28 KD, table headed 1A7[CD28] H1.14_L1.71 (aka 37 nM)
human CD28 [5] = biological target: T2, human CD28; experiment: method not stated; Monovalent CD28 KD, table headed 1A7[CD28] H1_L1.71 (aka 180 nM)
[6] = biological target: T3, MSLN on OVCAR8 cells (~90K MSLN antigens/cell) (UniProt Q13421 296-598); experiment: flow cytometry on OVCAR8 cells, 1 h at 4 C, anti-human-Fc A647 secondary
T3 construct: whole, on cells; Endogenous expression on a cancer cell line
Description: In this experiment, 50,000 OVCAR8 cells (˜90K MSLN antigens/cell) were seeded per well in a plate. Anti-human-Fc secondary (A647) was added for 30 min at 4° C., and binding was assessed via FACs. FIG. 39C depicts that the CD28×MSLN bsAbs in neither 1+1-Fab-scFv format nor the 2+1 mAb-scFv format antibodies show any significant off target binding. In this experiment, 50,000 SKOV3 cells (˜9K MSLN antigens/cell) were seeded per well in a plate. Anti-human-Fc secondary (A647) was added for 30 min at 4° C., and binding was assessed via FACs.
In order to assess the binding of MSLN×CD28 bsAbs in different formats, an experiment was conducted in which 50,000 OVCAR8 cells (˜90K MSLN antigens/cell) were seeded per well in a plate. Anti-human-Fc secondary (A647) was added for 30 min at 4° C., and binding was assessed via FACs.

human CD28 [7] = biological target: T2, human CD28; experiment: label in the legend box: nominal affinity of the CD28 binding domain (paragraph 422 calls such label values KD); method not stated on the sheet; remark: listed apart in the source
human mesothelin (MSLN) [8] = biological target: T1, human mesothelin (MSLN); experiment: label in the legend box: nominal affinity of the MSLN binding domain (paragraph 422 calls such label values KD); method not stated on the sheet; remark: listed apart in the source

Kd (human mesothelin (MSLN) [1]): 10.2 nM
koff (human mesothelin (MSLN) [1]): 0.00822 s⁻¹
kon (human mesothelin (MSLN) [1]): 803000 M⁻¹ s⁻¹
B1: XENP32937 (bispecific antibody)
chain 1: QVQLVQSGAEVKKPGASVKVSCKASGYTFTSYWMHWVRQAPGQGLEWMGMIHPNSDNTIYYQKFQGRVTMTVDKSISTAYMELSRLRSDDTAVYYCAIIITPVVPKFDYWGQGTLVTVSSASTKGPSVFPLAPSSKSTSGGTAALGCLVKDYFPEPVTVSWNSGALTSGVHTFPAVLQSSGLYSLSSVVTVPSSSLGTQTYICNVNHKPSDTKVDKKVEPKSCDKTHTCPPCPAPPVAGPSVFLFPPKPKDTLMISRTPEVTCVVVDVKHEDPEVKFNWYVDGVEVHNAKTKPREEEYNSTYRVVSVLTVLHQDWLNGKEYKCKVSNKALPAPIEKTISKAKGQPREPQVYTLPPSREEMTKNQVSLTCDVSGFYPSDIAVEWESDGQPENNYKTTPPVLDSDGSFFLYSKLTVDKSRWEQGDVFSCSVMHEALHNHYTQKSLSLSPGK
chain 2: not shown
chain 3: DIVMTQSPDSLAVSLGERATINCKASHDVGTSVAWYQQKPGQSPKLLIYWASTRHTGVPDRFTGSGSGTDFTLTISSLQAEDVAVYFCQQYYSYPLTFGAGTKLEIKRTVAAPSVFIFPPSDEQLKSGTASVVCLLNNFYPREAKVQWKVDNALQSGNSQESVTEQDSKDSTYSLSSTLTLSKADYEKHKVYACEVTHQGLSSPVTKSFNRGEC

Kd (human mesothelin (MSLN) [2]): 0.3 nM
Kd (human CD28 [3]): 180 nM
B2: XENP39534 (bispecific antibody)
heavy 1: B1 chain 1 with Q62E, M430L, N436S
heavy 2: not shown
light 1: B1 chain 3 with Y92S
light 2: B1 chain 3 with Y92S
notes: also called XENP39534 MSLN (0.3 nM) x CD28 (180 nM) 2+1 mAb-scFv

Kd (human CD28 [4]): 740 nM
B3: XENP44475 (bispecific antibody)
chain 1: QVQLVQSGAEVKKPGASVKVSCKASGYTFTSYWMHWVRQAPGQGLEWMGMIHPNSDNTIYYEKFQGRVTMTVDKSISTAYMELSRLRSDDTAVYYCAIIITPVVPKFDYWGQGTLVTVSSASTKGPSVFPLAPSSKSTSGGTAALGCLVKDYFPEPVTVSWNSGALTSGVHTFPAVLQSSGLYSLSSVVTVPSSSLGTQTYICNVNHKPSDTKVDKKVEPKSCGGGGSGGGGSQVQLVQSGAEVKKPGASVKVSCKASGYTFTSYWMHWVRQAPGQGLEWMGMIHPNSDNTIYYEKFQGRVTMTVDKSISTAYMELSRLRSDDTAVYYCAIIITPVVPKFDYWGQGTLVTVSSASTKGPSVFPLAPSSKSTSGGTAALGCLVKDYFPEPVTVSWNSGALTSGVHTFPAVLQSSGLYSLSSVVTVPSSSLGTQTYICNVNHKPSDTKVDKKVEPKSCDKTHTCPPCPAPPVAGPSVFLFPPKPKDTLMISRTPEVTCVVVDVKHEDPEVKFNWYVDGVEVHNAKTKPREEEYNSTYRVVSVLTVLHQDWLNGKEYKCKVSNKALPAPIEKTISKAKGQPREPQVYTLPPSREEMTKNQVSLTCDVSGFYPSDIAVEWESDGQPENNYKTTPPVLDSDGSFFLYSKLTVDKSRWEQGDVFSCSVLHEALHSHYTQKSLSLSPGK
chain 2: not shown
chain 3: B1 chain 3 with Y92S
notes: also called 2+1 Fab2-Fc x scFv-Fc MSLN x CD28 bsAb

Kd (human CD28 [5]): 200 nM
B4: XENP39554 (bispecific antibody)
heavy: B1 chain 1 with Q62E, M430L, N436S
scFv-Fc: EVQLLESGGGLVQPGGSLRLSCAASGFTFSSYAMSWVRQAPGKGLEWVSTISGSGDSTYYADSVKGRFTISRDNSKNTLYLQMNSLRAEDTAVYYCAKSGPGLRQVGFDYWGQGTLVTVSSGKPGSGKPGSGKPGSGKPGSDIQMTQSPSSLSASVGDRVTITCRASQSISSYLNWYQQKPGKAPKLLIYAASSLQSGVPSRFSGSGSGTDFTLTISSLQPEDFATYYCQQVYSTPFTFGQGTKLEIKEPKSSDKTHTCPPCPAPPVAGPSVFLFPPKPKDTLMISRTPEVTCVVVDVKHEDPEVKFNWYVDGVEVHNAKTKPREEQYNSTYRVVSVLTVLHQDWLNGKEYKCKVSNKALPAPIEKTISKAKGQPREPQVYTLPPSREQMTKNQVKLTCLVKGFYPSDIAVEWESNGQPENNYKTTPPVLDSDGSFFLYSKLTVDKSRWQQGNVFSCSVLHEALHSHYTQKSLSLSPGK
light: B1 chain 3 with Y92S
notes: also called H1_L1.71

Kd (human CD28 [5]): 460 nM
B5: XENP39534 (bispecific antibody)
heavy 1: B1 chain 1 with Q62E, M430L, N436S
heavy 2: not shown
light 1: B1 chain 3 with Y92S
light 2: B1 chain 3 with Y92S
notes: also called H1_L1.71

Kd (human CD28 [4]): 580 nM
B6: XENP44469 (bispecific antibody)
chain 1: B1 chain 1 with Q62E, M430L, N436S
chain 2: not shown
chain 3: B1 chain 3 with Y92S
notes: also called 2+1 Fab2-scFv-Fc MSLN x CD28 bsAb

EC50 (read off the curve) [6]: ~5 ng/mL
Kd (human CD28 [7]): 180 nM
Kd (human mesothelin (MSLN) [8]): 0.3 nM
B7: XENP44475 (bispecific antibody)
heavy: B3 chain 1
scFv-Fc: not shown
light 1: B1 chain 3 with Y92S
light 2: B1 chain 3 with Y92S
notes: also called XENP44475 MSLN (0.3 nM) x CD28 (180 nM) 2+1 Fab2-Fc x scFv-Fc

Kd (human CD28 [4]): 660 nM
B8: XENP39533 (bispecific antibody)
heavy 1: B1 chain 1 with Q62E, M430L, N436S
heavy 2: not shown
light 1: B1 chain 3 with Y92S
light 2: B1 chain 3 with Y92S
notes: also called H1.14_L1.71

Kd (human mesothelin (MSLN) [2]): 90 nM
Kd (human CD28 [3]): 180 nM
B9: XENP39570 (bispecific antibody)
heavy: B1 chain 1 with M50W, Q62E, M430L, N436S
scFv-Fc: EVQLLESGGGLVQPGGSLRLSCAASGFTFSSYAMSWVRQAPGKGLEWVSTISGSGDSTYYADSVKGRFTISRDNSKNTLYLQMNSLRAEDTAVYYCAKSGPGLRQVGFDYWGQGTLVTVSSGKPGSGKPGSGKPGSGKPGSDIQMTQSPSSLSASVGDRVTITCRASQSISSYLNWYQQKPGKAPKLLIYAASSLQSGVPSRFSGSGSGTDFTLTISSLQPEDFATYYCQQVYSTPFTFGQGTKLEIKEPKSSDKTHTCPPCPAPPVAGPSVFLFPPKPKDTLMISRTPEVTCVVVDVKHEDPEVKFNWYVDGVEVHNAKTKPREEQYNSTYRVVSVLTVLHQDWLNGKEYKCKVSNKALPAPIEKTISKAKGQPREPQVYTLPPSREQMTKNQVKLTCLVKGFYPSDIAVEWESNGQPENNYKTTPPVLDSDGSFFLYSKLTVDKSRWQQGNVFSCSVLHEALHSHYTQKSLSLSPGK
light: B1 chain 3 with T31Q, Y92S
notes: also called XENP39570 MSLN (90 nM) x CD28 (180 nM) 1+1 Fab-scFv-Fc

EC50 (read off the curve) [6]: ~4 ng/mL
Kd (human CD28 [7]): 180 nM
Kd (human mesothelin (MSLN) [8]): 0.3 nM
B10: XENP44469 (bispecific antibody)
heavy 1: B1 chain 1 with Q62E, M430L, N436S
heavy 2: not shown
light 1: B1 chain 3 with Y92S
light 2: B1 chain 3 with Y92S
notes: also called XENP44469 MSLN (0.3 nM) x CD28 (180 nM) 2+1 Fab2-scFv-Fc

Kd (human CD28 [5]): 4900 nM
B11: XENP44474 (bispecific antibody)
chain 1: B3 chain 1
chain 2: not shown
chain 3: B1 chain 3 with Y92S
notes: as for B3

Kd (human CD28 [5]): 1200 nM
B12: XENP44468 (bispecific antibody)
chain 1: B1 chain 1 with Q62E, M430L, N436S
chain 2: not shown
chain 3: B1 chain 3 with Y92S
notes: as for B6

Reference: US20230340128A1 (Xencor, published 2023)
